Laboratory results reported in PMC12552936, “Protein inhibitor of retinal membrane guanylyl cyclase suppresses cGMP synthesis in photoreceptors” (The Journal of Biological Chemistry, 2025).
Residue numbers refer to the chain shown, from its start. Numbers in names are those of the source.

Experiments:
[1] = biological target: mOrange-tagged RetGC1 (retinal membrane guanylyl cyclase 1) (human) (UniProt Q02846)
[2] = biological target: T1, mOrange-tagged RetGC1 (retinal membrane guanylyl cyclase 1) (human, UniProt Q02846 52-1103); test: cell-based or functional assay
T1 sequence (looked up): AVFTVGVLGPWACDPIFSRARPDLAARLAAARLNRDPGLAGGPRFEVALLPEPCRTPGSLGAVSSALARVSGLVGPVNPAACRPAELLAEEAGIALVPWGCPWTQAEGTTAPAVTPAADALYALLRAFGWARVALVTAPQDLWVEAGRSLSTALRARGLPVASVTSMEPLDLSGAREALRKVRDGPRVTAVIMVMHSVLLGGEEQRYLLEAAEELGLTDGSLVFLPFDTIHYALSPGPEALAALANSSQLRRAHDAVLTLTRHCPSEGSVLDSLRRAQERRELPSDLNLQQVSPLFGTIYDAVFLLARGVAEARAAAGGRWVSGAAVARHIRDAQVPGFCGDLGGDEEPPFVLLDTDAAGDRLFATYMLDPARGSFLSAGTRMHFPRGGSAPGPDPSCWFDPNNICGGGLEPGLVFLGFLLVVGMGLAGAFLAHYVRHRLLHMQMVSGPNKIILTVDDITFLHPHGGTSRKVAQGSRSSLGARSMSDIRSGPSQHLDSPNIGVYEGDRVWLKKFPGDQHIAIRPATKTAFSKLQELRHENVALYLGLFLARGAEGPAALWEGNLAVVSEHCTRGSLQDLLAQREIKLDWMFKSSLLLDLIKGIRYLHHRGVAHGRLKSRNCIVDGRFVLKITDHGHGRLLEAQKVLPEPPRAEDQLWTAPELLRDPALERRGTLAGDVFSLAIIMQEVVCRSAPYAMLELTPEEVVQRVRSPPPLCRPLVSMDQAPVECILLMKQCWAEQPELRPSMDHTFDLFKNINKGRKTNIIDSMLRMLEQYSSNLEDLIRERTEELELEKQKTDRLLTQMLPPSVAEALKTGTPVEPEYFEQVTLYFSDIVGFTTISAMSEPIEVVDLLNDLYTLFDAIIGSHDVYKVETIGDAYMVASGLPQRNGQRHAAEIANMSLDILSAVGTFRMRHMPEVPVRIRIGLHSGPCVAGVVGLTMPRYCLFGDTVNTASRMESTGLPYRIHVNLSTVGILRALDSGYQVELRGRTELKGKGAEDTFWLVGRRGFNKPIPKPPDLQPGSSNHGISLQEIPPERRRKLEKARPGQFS

[3] = biological target: native RetGC of the mouse retina (endogenous RetGC in retinal homogenates and isolated rod outer segments)

Question: How did the inhibition of the activity of recombinant RetGC1 in HEK293 membranes reconstituted with 1 μM GCAP1 (blocked pair: RetGC1:GCAP1), 2 mM EGTA, 10 mM MgCl2; IC50 [1] turn out when “M26R/L176F GCAP1 (from UniProt P46065 1-205) (natural protein)” was run?
Answer: 300 nM

B1: M26R GCAP1 (natural protein)
chain: MGNIMDGKSVEELSSTECHQWYKKFRTECPSGQLTLYEFRQFFGLKNLSPWASQYVEQMFETFDFNKDGYIDFMEYVAALSLVLKGKVEQKLRWYFKLYDVDGNGCIDRDELLTIIRAIRAINPCSDSTMTAEEFTDTVFSKIDVNGDGELSLEEFMEGVQKDQMLLDTLTRSLDLTRIVRRLQNGEQDEEGASGRETEAAEADG
modifications: N-terminal myristoyl
Question: B1 was tested. Which inhibition of the activity of recombinant RetGC1 in HEK293 membranes reconstituted with 1 μM GCAP1 (blocked pair: RetGC1:GCAP1), 2 mM EGTA, 10 mM MgCl2; IC50 [1] did it give?
Answer: 640 nM

B2: GCAP1-GFP (wildtype GCAP1 tagged with GFP) (natural protein, bovine, UniProt P46065 1-205, looked up)
chain: B1 chain with R26M
Question: For B2, which “activation of recombinant human RetGC1 by Mg2+GCAP1 in the absence of Ca2+, dose dependence (Fig. 3A inset); EC50” value [2] is on record?
Answer: ~1500 nM

B3: PIGCY-GFP (protein inhibitor of retinal guanylyl cyclase, M26R/G86R/L176F GCAP1, tagged with GFP at the C-terminus) (designed binder)
chain: B1 chain with G86R, L176F
Question: Which results are given for B3?
Answer: total RetGC activity in the rod outer segment fraction isolated from wildtype mouse retinas with 3 μM PIGCY (32 without PIGCY) (nmol cGMP/min/mg rhodopsin) [3]: 11; inhibition by PIGCY of RetGC1 preactivated by 1 μM bovine recombinant GCAP1 (blocked pair: RetGC1:bovine GCAP1), 2 mM EGTA, 10 mM MgCl2; IC50 [2]: 51 nM; inhibition by PIGCY of RetGC1 preactivated by 1 μM human recombinant GCAP1 (blocked pair: RetGC1:human GCAP1), 2 mM EGTA, 10 mM MgCl2; IC50 [2]: 75 nM; inhibition by PIGCY of RetGC1 preactivated by 1 μM mouse recombinant GCAP1 (blocked pair: RetGC1:mouse GCAP1), 2 mM EGTA, 10 mM MgCl2; IC50 [2]: 91 nM; inhibition of the activity of recombinant RetGC1 in HEK293 membranes reconstituted with 1 μM GCAP1 (blocked pair: RetGC1:GCAP1), 2 mM EGTA, 10 mM MgCl2; IC50 [2]: 52 nM; reduction of Vmax of recombinant human RetGC1 in HEK293 membranes reconstituted with 2 μM wildtype GCAP1 by 0.35 μM PIGCY (blocked pair: RetGC1:GCAP1) [2]: > 3 fold
